# Measurements: the supplement of paper PMC10567573
# B1: KLHL12 (parent)
# chain: LDYTADEDGVWYSVAPMNVRRGLA
# B2: KLHL13 (parent)
# chain: GVSKVGLRKIIDFIYTAKLSLNMD
# Variants of: B1
# Test: protein stability index of a GFP-peptide fusion (GPS, HEK-293T) (PSI 1-6); higher = more stable
# Details: c terminus: a fixed tail appended
# 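Also: lentivirally expressed fusions sorted by FACS into six bins by GFP to DsRed ratio, PSI derived from sequencing read proportions per bin multiplied by bin number.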
row,Variant,protein stability index
1,LDYTCDEDGVWYSVAPMNVRRGLA,1.68
2,LDYTDDEDGVWYSVAPMNVRRGLA,2.76
3,LDYTEDEDGVWYSVAPMNVRRGLA,2.14
4,DDYTADEDGVWYSVAPMNVRRGLA,3.47
5,HDYTADEDGVWYSVAPMNVRRGLA,2.67
6,PDYTADEDGVWYSVAPMNVRRGLA,3.41
7,CDYTADEDGVWYSVAPMNVRRGLA,2.75
8,GDYTADEDGVWYSVAPMNVRRGLA,3.19
9,SDYTADEDGVWYSVAPMNVRRGLA,3.24
10,NDYTADEDGVWYSVAPMNVRRGLA,3.92
11,IDYTADEDGVWYSVAPMNVRRGLA,1.89
12,VDYTADEDGVWYSVAPMNVRRGLA,2.25
13,FDYTADEDGVWYSVAPMNVRRGLA,2.16
14,QDYTADEDGVWYSVAPMNVRRGLA,4
15,MDYTADEDGVWYSVAPMNVRRGLA,2.2
16,TDYTADEDGVWYSVAPMNVRRGLA,3.18
17,EDYTADEDGVWYSVAPMNVRRGLA,3.53
18,YDYTADEDGVWYSVAPMNVRRGLA,2.32
19,RDYTADEDGVWYSVAPMNVRRGLA,2.99
20,KDYTADEDGVWYSVAPMNVRRGLA,2.75
21,ADYTADEDGVWYSVAPMNVRRGLA,3.26
22,WDYTADEDGVWYSVAPMNVRRGLA,2.53
23,LDYYADEDGVWYSVAPMNVRRGLA,2.57
24,LDYNADEDGVWYSVAPMNVRRGLA,2.24
25,LDYVADEDGVWYSVAPMNVRRGLA,1.98
26,LDYMADEDGVWYSVAPMNVRRGLA,2.48

row,Variant,protein stability index
1,LDYLADEDGVWYSVAPMNVRRGLA,4.91
2,LDYPADEDGVWYSVAPMNVRRGLA,3.09
3,LDYEADEDGVWYSVAPMNVRRGLA,2.69
4,LDYSADEDGVWYSVAPMNVRRGLA,2.81
5,LDYWADEDGVWYSVAPMNVRRGLA,1.74
6,LDYRADEDGVWYSVAPMNVRRGLA,1.51
7,LDYIADEDGVWYSVAPMNVRRGLA,2.12
8,LDYFADEDGVWYSVAPMNVRRGLA,1.7
9,LDYGADEDGVWYSVAPMNVRRGLA,2.1
10,LDYQADEDGVWYSVAPMNVRRGLA,2.45
11,LDYHADEDGVWYSVAPMNVRRGLA,1.77
12,LDYKADEDGVWYSVAPMNVRRGLA,2.57
13,LDYCADEDGVWYSVAPMNVRRGLA,1.98
14,LDYAADEDGVWYSVAPMNVRRGLA,2.24
15,LDYDADEDGVWYSVAPMNVRRGLA,2.41
16,LIYTADEDGVWYSVAPMNVRRGLA,1.37
17,LCYTADEDGVWYSVAPMNVRRGLA,2.46
18,LFYTADEDGVWYSVAPMNVRRGLA,1.98
19,LRYTADEDGVWYSVAPMNVRRGLA,1.93
20,LGYTADEDGVWYSVAPMNVRRGLA,2.96
21,LLYTADEDGVWYSVAPMNVRRGLA,1.55
22,LYYTADEDGVWYSVAPMNVRRGLA,2.43
23,LNYTADEDGVWYSVAPMNVRRGLA,1.74
24,LTYTADEDGVWYSVAPMNVRRGLA,1.49
25,LEYTADEDGVWYSVAPMNVRRGLA,1.76
26,LPYTADEDGVWYSVAPMNVRRGLA,2.48

row,Variant,protein stability index
1,LAYTADEDGVWYSVAPMNVRRGLA,2.3
2,LHYTADEDGVWYSVAPMNVRRGLA,1.67
3,LMYTADEDGVWYSVAPMNVRRGLA,2.4
4,LWYTADEDGVWYSVAPMNVRRGLA,2.19
5,LSYTADEDGVWYSVAPMNVRRGLA,1.84
6,LQYTADEDGVWYSVAPMNVRRGLA,1.47
7,LKYTADEDGVWYSVAPMNVRRGLA,1.68
8,LDMTADEDGVWYSVAPMNVRRGLA,2.33
9,LDPTADEDGVWYSVAPMNVRRGLA,3.6
10,LDKTADEDGVWYSVAPMNVRRGLA,3.58
11,LDLTADEDGVWYSVAPMNVRRGLA,2.22
12,LDHTADEDGVWYSVAPMNVRRGLA,3.43
13,LDQTADEDGVWYSVAPMNVRRGLA,3.69
14,LDFTADEDGVWYSVAPMNVRRGLA,2.29
15,LDCTADEDGVWYSVAPMNVRRGLA,2.47
16,LDGTADEDGVWYSVAPMNVRRGLA,3.22
17,LDTTADEDGVWYSVAPMNVRRGLA,3.01
18,LDETADEDGVWYSVAPMNVRRGLA,3.6
19,LDWTADEDGVWYSVAPMNVRRGLA,1.94
20,LDNTADEDGVWYSVAPMNVRRGLA,3.78
21,LDITADEDGVWYSVAPMNVRRGLA,1.85
22,LDRTADEDGVWYSVAPMNVRRGLA,2.99
23,LDDTADEDGVWYSVAPMNVRRGLA,3.35
24,LDSTADEDGVWYSVAPMNVRRGLA,3.61
25,LDATADEDGVWYSVAPMNVRRGLA,3.65
26,LDVTADEDGVWYSVAPMNVRRGLA,1.78

# Variants of: B2
# Test: as above
# Details: c terminus: a fixed tail appended
row,Variant,protein stability index
1,GVSKVGLRKIIDFIYTAGLSLNMD,2.55
2,GVSKVGLRKIIDFIYTAHLSLNMD,2.72
3,GVSKVGLRKIIDFIYTARLSLNMD,2.63
4,GVSKVGLRKIIDFIYTANLSLNMD,2.17
5,GVSKVGLRKIIDFIYTAPLSLNMD,2.89
6,GVSKVGLRKIIDFIYTATLSLNMD,2.15
7,GVSKVGLRKIIDFIYTAYLSLNMD,2.88
8,GVSKVGLRKIIDFIYTAMLSLNMD,2.52
9,GVSKVGLRKIIDFIYTACLSLNMD,2.46
10,GVSKVGLRKIIDFIYTASLSLNMD,3.44
11,GVSKVGLRKIIDFIYTAWLSLNMD,2.7
12,GVSKVGLRKIIDFIYTAQLSLNMD,3.22
13,GVSKVGLRKIIDFIYTALLSLNMD,1.76
14,GVSKVGLRKIIDFIYTAKLSLNND,1.53
15,GVSKVGLRKIIDFIYTAKLSLNQD,1.55
16,GVSKVGLRKIIDFIYTAKLSLNRD,3.14
